Consider 8 molecules from patent US5814612A, “Retinol derivatives and uses thereof” (priority 1992, dated 1998).

Entries after “also recorded” stand apart in the source; their conditions may differ.

One data set concerns 5/2 cells. It counts as in vitro ADME, human. Here is the method: 5/2 cells (10^6 cells in 10 ml HB 101 medium) were incubated with all-trans-[^3 H] retinol (10 uCe/ml). After 24 hours, retinoids were extracted from the washed cell pellet and unlabeled marker retinoids were added. The crude extract was loaded on an analytical reversed-phase C-18 column. Retinoids were eluted with the shown linear gradient of water/methanol/chloroform. The flow rate was 0.5 ml/min. DPM were determined with an on line scintillation counter. Reference retinoids were the all-trans forms of 0: 3,4-didehydroretinoic acid, 1: all-trans-retinoic acid, 2: 3,4-didehydroretinol, 3: retinol, 4: retinyl linoleate, 5: retinyl oleate, 6: retinyl palmitate. Shaded area corresponds to P3. Cross-hatched area corresponds to P1.
Lymphoblastoid 5/2 cells grown in the presence of 10^-6 M retinol were spiked with ^3 H-labeled retinol. After 16 hours the cell pellet was delipidated according to the method of McLean et al. and separated on a reversed phase C-18 HPLC column (FIG. 7). […] Three peaks, P1, P2 and P3, could not be immediately identified. One peak eluting at 36-39 minutes (corresponding 83% methanol 7% water) provisionally called P3, but now known as 14HRR, was unusual because unlike P1 eluting at 31-34 minutes, its relative amount increased when the retinol concentration was lowered or when retinol was given to the cells bound to RBP. […] Since HeLa cells contain 14HRR, these cells were also used. 50 ml of packed HeLa cells (10^10 cells) yielded 25 OD348nmunits of pure P3 after the following sequence of steps: 1. Growth in the presence of 10^-5 M retinol; 2. Extraction of cell pellet according to McClean et al. (13); 3. Preparative C-18 HPLC column eluted with a water/methanol gradient; 4. semipreparative C18 HPLC column eluted with a water/acetonitrile gradient; 5. analytical C4 column eluted with a water/methanol gradient.

The subject of the next data set is T cells. The data set can be described thus: T cell activation and proliferation, retinol cofactor requirement. The class given is cell-based, murine. Here is the method:
They were seeded into 96-well flat-bottom plates at varying cellular densities in a final volume of 100 μl. In control experiments, cells were cultured in medium containing 10% FCS or 3% human serum and 5×10^-5 M 2ME. […] Cultures were carried out in duplicate. Plates were incubated at 37° C. in a humidified 5% CO2 atmosphere. Cellular proliferation was determined by [^3 H] thymidine uptake (0.5 uCi/well; New England Nuclear, Boston, Mass.) after the incubation times indicated for each experiment with a 4 hour labeling pulse. Cells were harvested onto glass filter and [^3 H]TdR incorporation was determined by liquid scintillation counting. The data presented are the means of duplicate or six replicate cultures. The restriction to duplicate measurements was necessary to conserve scarce 14HRR. […] Each experiment was repeated at least twice.

The test system of another data set is thymocytes. The data set is described as follows: Proliferation of anti-CD3 activated thymocytes in serum-free ITLB medium. The class given is cell-based, BALB/c mouse. The settings on record: for ability of cytokine to replace retinol: absence of retinol; for growth-stimulating effect, anti-CD3, no Retinol / growth-stimulating effect, anti-CD3, 10^-6 M Retinol: 3 days, IL-1 10, IL-2 2, IL-4 5, IL-6 5, IFN-gamma 40, TNF-alpha 12, IL-2 + IL-4 2/5 U/ml; for growth-stimulating effect, anti-CD3, 10^-6 M Retinol: with 10^-6 M retinol (head), Retinol: stimulating agent none. Here is the method:
FIG. 14A: Purified BALB/c thymocytes were activated with immobilized anti-CD3e antibody and cultivated for four days in ITLB medium with or without retinol (3×10^-6 M), 14HRR (6×10^-7 M) (fresh 14HRR was added every 12 hours), human serum (3%) or FCS (10%) at the cellular densities shown. Proliferation was assayed by tritiated thymidine incorporation into cellular DNA.
FIG. 14B: BALB/c thymocytes (10^6 /ml) were added to microtiter plates coated with titrated amounts of anti-CD3e antibody with […] retinol or without, as indicated. Proliferation was measured in hexaduplicate wells on day 3 by ^3 H thymidine incorporation assay.
Purified thymocytes (5×10^5 cells/well) were stimulated by TCR crosslinking with immobilized anti-CD3e antibody (FIG. 15A) or 0.4 μg/ml Con A (FIG. 15B) in serum-free ITLB medium. The indicated amounts of retinoids were added either once at the beginning of the experiment (marked as "1×") or every 12 hours thereafter (marked as "6×"). DNA synthesis was measured after 72 hours by tritiated thymidine uptake as described.
Purified thymocytes (10^5 cells/well) were activated with anti-CD3 antibody in ITLB medium with or without retinol (3×10^-6 M), 14HRR (6×10^-7, added every 12 hours or human serum (3%)). DNA synthesis was measured daily by a 4 hour pulse of tritiated thymidine.
Thymocytes (5×10^4 /well) were activated by immobilized anti-CD3 mAb in medium ITLB. Retinol (2×10^-6 M) was added at initiation of culture, or delayed by 12 hours and 24 hours, respectively, or omitted altogether. ^3 H thymidine pulses of 4 hours were used to measure DNA synthesis of hexaduplicate wells.
Thymuses of 3 to 6-week-old BALB/c mice were teased in serum-free RPMI medium supplemented with 1% BSA, 10^-6 M linoleic acid and antibiotics. Depletion of accessory cells was achieved by two cycles of complement-dependent lysis with a mixture of anti-IA^d (5 μg/ml) and anti-IE^d (1:500 diluted ascites fluid). Briefly, cells were incubated on ice for 30 minutes with Ia antibodies, spun down, resuspended in 1:40 diluted rabbit complement, and incubated at 37° C. for 45 minutes. Incubations and two subsequent washes were carried out with RPMI medium containing 1% BSA. Cell viability was evaluated by trypan blue dye exclusion. To determine the extent of depletion of accessory cells, samples were stained with FITC-conjugated anti-Fc receptor antibody and analyzed by flow cytometry on a FACScan instrument (Becton Dickinson).
Cells were cultured in serum-free medium, referred to as ITLB, containing RPMI 1640 supplemented with 8×10^-7 M insulin (5 μg/ml), 7×10^-8 M transferrin (5 μg/ml), 2×10^-6 M linoleic acid, 2×10^-6 M delipidated BSA (0.12 mg/ml), 2 mM L-glutamine, 1 mM sodium pyruvate and antibiotics. They were seeded into 96-well flat-bottom plates at varying cellular densities in a final volume of 100 μl. In control experiments, cells were cultured in medium containing 10% FCS or 3% human serum and 5×10^-5 M 2ME. T cells and thymocytes were activated with immobilized, purified anti-mAb CD3e or by the addition of Con A in the presence or absence of different concentrations of retinoids. Unless indicated otherwise, retinoids were replenished every 12 hours to maintain a reasonably constant concentration of these labile compounds in culture. […] Cultures were carried out in duplicate. Plates were incubated at 37° C. in a humidified 5% CO2 atmosphere. Cellular proliferation was determined by [^3 H] thymidine uptake (0.5 uCi/well; New England Nuclear, Boston, Mass.) after the incubation times indicated for each experiment with a 4 hour labeling pulse.

Regarding `CC1=C(/C=C/C(C)=C/C=C/C(C)=C/CO)C(C)(C)CC=C1` [3,4-didehydroretinol], in the data set with 5/2 cells, the “detection as metabolite of retinol” value is recorded as “not detectable”.
Consider TNF-alpha, for which the “ability to substitute for retinol in T cell activation (words)” value (“ability to substitute for retinol” below) with T cells is “cannot be satisfied by retinoic acid or interleukins 1, 2, 4 and 6, and TNF-alpha”. For the same molecule, in the data set on thymocytes, the “ability of cytokine to replace retinol” value was “none of the interleukins tested (IL-1, IL-2, IL-4 and IL-6) nor TNF-alpha are substitutes for retinol”; the “growth-stimulating effect, anti-CD3, no Retinol” value was found to be 464 ± 95 CPM; the “growth-stimulating effect, anti-CD3, 10^-6 M Retinol” value is given as 122,905 ± 11,577 CPM. For the same molecule, the “ability of cytokine to replace retinol” value in the data set with thymocytes (listed as TNF-α) is recorded as “does not”.
Regarding `CC1=C(/C=C/C(C)=C/C=C/C(C)=C/C(=O)O)C(C)(C)CC=C1` [3,4-didehydroretinol acid, 3,4-didehydroretinoic acid], in the data set with 5/2 cells, the “detection as metabolite of retinol” value is “not detectable”.
For IL-6: hrIL-6, in the data set with thymocytes, the “ability of cytokine to replace retinol” value was “None of the four interleukins, IL-1, IL-2, IL-4 or IL-6, was capable of overcoming the requirement for retinal; also recorded: none of the interleukins tested (IL-1, IL-2, IL-4 and IL-6) nor TNF-alpha are substitutes for retinol”; the “growth-stimulating effect, anti-CD3, no Retinol” value is 1,005 ± 815 CPM; the “growth-stimulating effect, anti-CD3, 10^-6 M Retinol” value is 130,590 ± 25,803 CPM.
With `CC1=C(/C=C/C(C)=C/C=C/C(C)=C\CO)C(C)(C)CCC1` [13-cis-retinol], in the data set on T cells, the “ability to substitute for retinol” value was “can substitute for retinal”. The “effectiveness relative to retinol” value with thymocytes (anti-CD3, 14HRR at 12 hour intervals) is listed as “equally effective as all-trans retinol”.

B1: IFN-gamma: mouse recombinant IFN-gamma (protein, UniProt P01580 23-155, looked up)
Interferon gamma: HGTVIESLESLNNYFNSSGIDVEEKSLFLDIWRNWQKDGDMKILQSQIISFYLRLFEVLKDNQAISNNISVIESHLITTFFSNSKAKKDAFMSIAKFEVNNPQVQRQAFNELIRVVHQLLPESSLRKRKRSRC
As to B1, the “ability to substitute for retinol” value in the data set on T cells is “can substitute for retinol”. Further, in the data set with thymocytes, the “ability of cytokine to replace retinol” value is “can circumvent the retinol requirement and initiate durable proliferation in the absence of retinol or 14HRR”; the “growth-stimulating effect, anti-CD3, no Retinol” value is on record as 81,876 ± 11,868 CPM; the “growth-stimulating effect, anti-CD3, 10^-6 M Retinol” value is 220,359 ± 27,726 CPM; the “effect of cytokine combined with retinol” value is “strong additive effects”. Also, the “ability of cytokine to replace retinol” value with thymocytes (listed as interferon-gamma) was “can sustain thymocyte proliferation in the absence of retinol; also recorded: quite efficient in anti-CD3-mediated activation in the absence of retinol”. For the same molecule, the “effect of cytokine combined with retinol” value in the data set with thymocytes (listed as Interferon-gamma) is listed as “clear additive effect with retinol”.

B2: IL-1: Human recombinant IL-1-α (protein, UniProt P01583 113-271, looked up)
Interleukin-1 alpha: SAPFSFLSNVKYNFMRIIKYEFILNDALNQSIIRANDQYLTAAALHNLDEAVKFDMGAYKSSKDDAKITVILRISKTQLYVTAQDEDQPVLLKEMPEIPKTITGSETNLLFFWETHGTKNYFTSVAHPNLFIATKQDYWVCLAGGPPSITDFQILENQA
As to B2, in the data set with thymocytes, the “ability of cytokine to replace retinol” value is “None of the four interleukins, IL-1, IL-2, IL-4 or IL-6, was capable of overcoming the requirement for retinal; also recorded: none of the interleukins tested (IL-1, IL-2, IL-4 and IL-6) nor TNF-alpha are substitutes for retinol”; the “growth-stimulating effect, anti-CD3, no Retinol” value was found to be 959 ± 30 CPM; the “growth-stimulating effect, anti-CD3, 10^-6 M Retinol” value is listed as 118,924 ± 3,051 CPM.

B3: IL-4: murine rIL-4 (protein, UniProt P07750 21-140, looked up)
Interleukin-4: HIHGCDKNHLREIIGILNEVTGEGTPCTEMDVPNVLTATKNTTESELVCRASKVLRIFYLKHGKTPCLKKNSSVLMELQRLFRAFRCLDSSISCTMNESKSTSLKDFLESLKSIMQMDYS
In the case of B3, in the data set on thymocytes, the “ability of cytokine to replace retinol” value was “None of the four interleukins, IL-1, IL-2, IL-4 or IL-6, was capable of overcoming the requirement for retinal; also recorded: none of the interleukins tested (IL-1, IL-2, IL-4 and IL-6) nor TNF-alpha are substitutes for retinol”; the “growth-stimulating effect, anti-CD3, no Retinol” value was found to be 991 ± 105 CPM; the “growth-stimulating effect, anti-CD3, 10^-6 M Retinol” value is on record as 115,849 ± 20,630 CPM.
